Experimental data reported in patent US20140271602, “NUCLEOTIDE-SPECIFIC RECOGNITION SEQUENCES FOR DESIGNER TAL EFFECTORS” (THE BROAD INSTITUTE INC., published 2014).

Target: T1, TALE1-NK repressor (Xanthomonas (engineered), UniProt P14727 SEQ:1-983)
T1 chain: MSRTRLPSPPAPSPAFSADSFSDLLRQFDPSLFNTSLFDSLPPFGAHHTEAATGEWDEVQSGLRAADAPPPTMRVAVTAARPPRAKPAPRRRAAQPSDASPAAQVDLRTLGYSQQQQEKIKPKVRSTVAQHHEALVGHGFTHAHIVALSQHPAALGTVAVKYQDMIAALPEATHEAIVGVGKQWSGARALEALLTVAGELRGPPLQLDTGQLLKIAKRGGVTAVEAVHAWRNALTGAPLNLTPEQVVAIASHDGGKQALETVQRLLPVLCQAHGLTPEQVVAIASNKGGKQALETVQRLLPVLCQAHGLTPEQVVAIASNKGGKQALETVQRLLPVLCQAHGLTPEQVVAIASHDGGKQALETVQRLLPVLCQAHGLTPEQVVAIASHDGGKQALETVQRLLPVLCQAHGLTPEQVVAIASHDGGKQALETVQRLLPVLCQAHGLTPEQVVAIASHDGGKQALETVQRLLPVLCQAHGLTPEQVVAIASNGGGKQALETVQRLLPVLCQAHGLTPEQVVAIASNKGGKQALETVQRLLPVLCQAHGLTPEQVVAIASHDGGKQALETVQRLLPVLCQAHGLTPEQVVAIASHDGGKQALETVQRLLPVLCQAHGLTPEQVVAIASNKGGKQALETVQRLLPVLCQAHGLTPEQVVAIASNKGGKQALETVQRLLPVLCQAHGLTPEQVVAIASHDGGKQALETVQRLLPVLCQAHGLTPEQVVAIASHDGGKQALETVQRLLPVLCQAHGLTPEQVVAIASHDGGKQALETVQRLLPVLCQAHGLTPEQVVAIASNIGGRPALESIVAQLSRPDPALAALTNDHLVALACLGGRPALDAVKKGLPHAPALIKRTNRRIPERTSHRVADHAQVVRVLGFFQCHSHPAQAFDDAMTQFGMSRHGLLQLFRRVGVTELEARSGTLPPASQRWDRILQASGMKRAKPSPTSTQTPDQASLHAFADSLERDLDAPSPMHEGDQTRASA
Test: cell_activity; endogenous CACNA1C mRNA
Conditions: tags: SID

B1: CACNA1C site 1 (dsDNA)
DNA 1: TCGGCCCCTGCCGGCCCA
DNA 2: TGGGCCGGCAGGGGCCGA
Work on B1 yielded an activity of roughly 2 fold repression.
